The values that follow come from patent US20140271603A1.

This assay addresses C3 convertase of the alternative pathway (C3bBb) formed on C3b-coated wells (UniProt P01024). Briefly: cell-based or functional assay.

Chain of C3 convertase of the alternative pathway (C3bBb) formed on C3b-coated wells (P01024 749-1663 limits assumed, chain 1 of 3): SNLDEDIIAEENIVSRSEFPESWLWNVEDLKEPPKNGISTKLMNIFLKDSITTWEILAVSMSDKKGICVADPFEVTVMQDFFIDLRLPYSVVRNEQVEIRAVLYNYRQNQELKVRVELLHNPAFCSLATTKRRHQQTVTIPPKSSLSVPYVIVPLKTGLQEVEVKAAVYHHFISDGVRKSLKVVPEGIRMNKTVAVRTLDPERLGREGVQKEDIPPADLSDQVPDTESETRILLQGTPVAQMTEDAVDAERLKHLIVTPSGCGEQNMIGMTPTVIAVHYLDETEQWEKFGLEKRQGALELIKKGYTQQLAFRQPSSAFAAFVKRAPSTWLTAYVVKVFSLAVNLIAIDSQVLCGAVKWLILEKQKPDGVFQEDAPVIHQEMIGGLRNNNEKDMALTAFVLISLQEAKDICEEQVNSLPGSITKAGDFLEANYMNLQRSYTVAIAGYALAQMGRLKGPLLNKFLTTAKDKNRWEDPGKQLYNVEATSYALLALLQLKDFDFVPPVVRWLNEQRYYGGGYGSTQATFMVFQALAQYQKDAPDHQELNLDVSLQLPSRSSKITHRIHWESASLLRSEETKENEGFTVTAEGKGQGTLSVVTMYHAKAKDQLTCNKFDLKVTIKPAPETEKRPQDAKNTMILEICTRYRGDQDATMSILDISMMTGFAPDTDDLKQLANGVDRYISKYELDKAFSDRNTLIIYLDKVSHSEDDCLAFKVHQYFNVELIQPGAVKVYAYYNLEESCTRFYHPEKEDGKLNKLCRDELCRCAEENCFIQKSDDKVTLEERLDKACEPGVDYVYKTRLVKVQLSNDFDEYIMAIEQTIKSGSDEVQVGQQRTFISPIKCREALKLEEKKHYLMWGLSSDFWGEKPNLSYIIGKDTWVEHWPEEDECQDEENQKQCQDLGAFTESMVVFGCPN
Chain of C3 convertase of the alternative pathway (C3bBb) formed on C3b-coated wells (P01024 23-667 limits assumed, chain 2 of 3): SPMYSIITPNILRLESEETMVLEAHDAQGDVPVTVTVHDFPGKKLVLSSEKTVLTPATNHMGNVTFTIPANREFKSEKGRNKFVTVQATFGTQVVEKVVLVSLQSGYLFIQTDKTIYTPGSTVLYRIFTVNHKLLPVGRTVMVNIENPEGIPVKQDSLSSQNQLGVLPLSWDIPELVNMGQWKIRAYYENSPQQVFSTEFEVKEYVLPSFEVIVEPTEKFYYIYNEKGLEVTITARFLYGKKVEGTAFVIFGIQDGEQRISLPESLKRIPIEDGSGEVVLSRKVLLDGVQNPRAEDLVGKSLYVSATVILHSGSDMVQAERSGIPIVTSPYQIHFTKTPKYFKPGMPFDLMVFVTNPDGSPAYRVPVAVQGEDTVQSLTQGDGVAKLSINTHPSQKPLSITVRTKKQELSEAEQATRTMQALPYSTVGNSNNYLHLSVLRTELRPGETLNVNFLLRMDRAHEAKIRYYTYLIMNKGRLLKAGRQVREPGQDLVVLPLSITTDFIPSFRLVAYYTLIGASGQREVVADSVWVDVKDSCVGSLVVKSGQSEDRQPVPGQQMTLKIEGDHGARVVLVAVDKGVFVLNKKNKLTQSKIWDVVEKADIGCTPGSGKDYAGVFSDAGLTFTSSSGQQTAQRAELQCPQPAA
Chain of C3 convertase of the alternative pathway (C3bBb) formed on C3b-coated wells (P00751 260-764 limits assumed, chain 3 of 3, further chain): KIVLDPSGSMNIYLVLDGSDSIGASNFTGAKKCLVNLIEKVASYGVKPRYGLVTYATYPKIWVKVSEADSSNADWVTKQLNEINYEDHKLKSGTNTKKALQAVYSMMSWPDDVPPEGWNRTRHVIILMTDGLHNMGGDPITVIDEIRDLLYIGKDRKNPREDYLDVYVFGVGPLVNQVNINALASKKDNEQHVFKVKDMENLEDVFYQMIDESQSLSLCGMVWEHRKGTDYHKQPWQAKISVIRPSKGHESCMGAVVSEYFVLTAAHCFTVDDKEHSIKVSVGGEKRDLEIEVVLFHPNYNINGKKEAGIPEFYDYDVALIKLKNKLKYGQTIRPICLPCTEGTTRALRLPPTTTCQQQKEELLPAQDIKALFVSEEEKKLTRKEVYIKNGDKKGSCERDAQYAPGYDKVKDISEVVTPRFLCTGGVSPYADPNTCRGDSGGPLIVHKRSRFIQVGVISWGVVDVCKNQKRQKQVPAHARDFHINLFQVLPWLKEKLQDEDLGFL

“factor H of the pool plasma (ECQ 1) (from UniProt P08603 19-1231)” came in with a mean IC50 (printed '1050'), acceleration of the dissociation of C3 convertase, pool plasma of 0.058 µg/mL.

The substance “purified human plasma factor H (batch LFB) (from UniProt P08603 19-1231)” registered an IC50, acceleration of the dissociation of C3 convertase (sample: Formulated plasma FH, purified protein) of 0.0179 µg/mL; an IC50, acceleration of the dissociation of C3 convertase (sample: Formulated purified FH plasma) of 0.0546 µg/mL; an IC50, acceleration of the dissociation of C3 convertase (sample: Plasma FH PBS 1X) of 0.0152 µg/mL; an IC50, acceleration of the dissociation of C3 convertase (sample: Purified FH plasma PBS 1X) of 0.0438 µg/mL.

“Human Factor H Calibrator NL (The Binding Site, Ref: RP030) (from UniProt P08603 19-1231)” showed an IC50, acceleration of the dissociation of C3 convertase (sample: FH plasma calibrator (The binding site)) of 0.0681 µg/mL.
